Test results as given in PMC8385042.

Molecular target: TIR domain of Toll-like receptor 1 (TLR1-TIR), residues 625-786 of human TLR1 (human) (UniProt Q15399)
Test: dynamic light scattering; 100 uM TLR1-TIR, 10 °C, cytoplasm-like buffer, threefold molar excess of ZnCl2 (1:3 protein to metal)

stoichiometry N: 5
Substance: TIR domain of Toll-like receptor 1 (TLR1-TIR), residues 625-786 of human TLR1 (from UniProt Q15399 625-786) (domain or fragment)
